Values of other authors as cited in PMC3867676.

Legend:
RANKL (Homo sapiens) = RANKL (Homo sapiens) (UniProt O14788)
TRAIL (Homo sapiens) = TRAIL (Homo sapiens) (UniProt P50591)
Sequence of UniProt P50591 (P50591 whole entry): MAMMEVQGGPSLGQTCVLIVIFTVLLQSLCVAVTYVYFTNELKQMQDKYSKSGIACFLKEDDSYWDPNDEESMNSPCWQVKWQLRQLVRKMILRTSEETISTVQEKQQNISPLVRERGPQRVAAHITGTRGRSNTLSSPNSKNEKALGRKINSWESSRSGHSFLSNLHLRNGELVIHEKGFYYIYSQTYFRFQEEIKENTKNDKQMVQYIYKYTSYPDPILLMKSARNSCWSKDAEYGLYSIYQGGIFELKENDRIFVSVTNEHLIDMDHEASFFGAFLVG

Sequence of UniProt O14788 (O14788 140-317): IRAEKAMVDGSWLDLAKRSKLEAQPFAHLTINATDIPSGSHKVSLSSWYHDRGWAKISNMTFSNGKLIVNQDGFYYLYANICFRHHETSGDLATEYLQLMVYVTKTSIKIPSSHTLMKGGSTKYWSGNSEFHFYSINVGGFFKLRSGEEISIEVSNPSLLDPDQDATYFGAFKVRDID

Kd (RANKL (Homo sapiens)): 23 nM
Kd (TRAIL (Homo sapiens)): 45 nM
Substance: OPG (from UniProt O00300)
